The source of these data is patent US20220195052A1.

The test concerns the target human αvβ1 integrin on cells (human) (UniProt P06756). As to the kind of experiment: inhibition of adhesion of BCECF-labelled αvβ1-transfected cells to plate-coated LAP.

Chain of human αvβ1 integrin on cells (human) (P06756 31-1048 limits assumed, chain 1 of 2): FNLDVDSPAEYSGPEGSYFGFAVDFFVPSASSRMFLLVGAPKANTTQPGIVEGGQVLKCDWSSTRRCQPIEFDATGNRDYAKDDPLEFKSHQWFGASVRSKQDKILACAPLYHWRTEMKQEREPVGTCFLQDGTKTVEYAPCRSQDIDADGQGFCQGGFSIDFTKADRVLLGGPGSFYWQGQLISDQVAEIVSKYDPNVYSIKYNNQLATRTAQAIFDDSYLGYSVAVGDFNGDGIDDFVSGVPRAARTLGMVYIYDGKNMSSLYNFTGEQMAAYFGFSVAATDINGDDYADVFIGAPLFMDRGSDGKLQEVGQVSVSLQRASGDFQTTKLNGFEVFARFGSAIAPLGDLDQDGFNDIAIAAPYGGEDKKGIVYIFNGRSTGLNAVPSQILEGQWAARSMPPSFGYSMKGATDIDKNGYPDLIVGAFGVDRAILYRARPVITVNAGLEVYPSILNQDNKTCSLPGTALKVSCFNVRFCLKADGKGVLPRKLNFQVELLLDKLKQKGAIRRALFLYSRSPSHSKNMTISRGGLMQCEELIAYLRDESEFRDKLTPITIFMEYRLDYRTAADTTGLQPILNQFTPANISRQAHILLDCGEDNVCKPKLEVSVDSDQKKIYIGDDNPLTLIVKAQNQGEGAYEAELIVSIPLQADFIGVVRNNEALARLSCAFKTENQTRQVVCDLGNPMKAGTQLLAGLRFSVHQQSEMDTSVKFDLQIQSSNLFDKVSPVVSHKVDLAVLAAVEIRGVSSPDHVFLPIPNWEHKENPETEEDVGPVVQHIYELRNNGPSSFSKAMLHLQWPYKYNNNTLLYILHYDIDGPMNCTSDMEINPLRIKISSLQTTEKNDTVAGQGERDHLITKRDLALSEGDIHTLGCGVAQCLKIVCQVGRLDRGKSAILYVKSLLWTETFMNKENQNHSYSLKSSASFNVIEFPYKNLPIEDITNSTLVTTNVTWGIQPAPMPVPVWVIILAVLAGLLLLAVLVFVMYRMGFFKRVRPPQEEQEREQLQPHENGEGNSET
Chain of human αvβ1 integrin on cells (human) (chain, as listed by the source limits assumed, chain 2 of 2): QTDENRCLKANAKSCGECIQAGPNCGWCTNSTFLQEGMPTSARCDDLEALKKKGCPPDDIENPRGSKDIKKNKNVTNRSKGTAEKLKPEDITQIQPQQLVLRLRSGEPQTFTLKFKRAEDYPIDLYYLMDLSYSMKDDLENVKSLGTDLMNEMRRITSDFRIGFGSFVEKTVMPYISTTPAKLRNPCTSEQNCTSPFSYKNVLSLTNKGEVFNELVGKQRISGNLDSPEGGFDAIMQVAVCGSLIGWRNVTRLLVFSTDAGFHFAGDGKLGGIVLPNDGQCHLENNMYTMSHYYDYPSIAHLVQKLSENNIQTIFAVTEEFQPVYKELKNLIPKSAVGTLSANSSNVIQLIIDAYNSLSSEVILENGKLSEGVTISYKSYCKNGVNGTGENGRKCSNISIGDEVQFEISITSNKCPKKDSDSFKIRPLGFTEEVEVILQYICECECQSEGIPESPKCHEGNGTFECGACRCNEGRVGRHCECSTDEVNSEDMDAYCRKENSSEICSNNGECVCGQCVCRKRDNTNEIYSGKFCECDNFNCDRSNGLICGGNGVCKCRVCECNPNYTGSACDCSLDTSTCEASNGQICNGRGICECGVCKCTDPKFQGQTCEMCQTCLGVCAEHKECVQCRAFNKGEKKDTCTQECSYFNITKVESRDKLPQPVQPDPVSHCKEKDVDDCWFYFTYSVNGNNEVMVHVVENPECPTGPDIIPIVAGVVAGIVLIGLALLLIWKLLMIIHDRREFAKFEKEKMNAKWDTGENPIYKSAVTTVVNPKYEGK

The term IC50 denotes the concentration needed to halve the response being measured. Lower therefore signals greater potency in that assay. As to L230 (pan-αv commercial antibody), the IC50 is 1 nM.
